Measured values as given in the Immune Epitope Database (IEDB).

Tests used:
HLA-B*27:03 = assay: IEDB peptide-MHC binding, purified MHC/competitive/fluorescence; filed as Kd, often an IC50 or EC50 that approximates it; ≥ and ≤ were set here for values at or beyond the usual limits of such assays
HLA-A*02:19 = assay: as above
HLA-A*29:02 [1] = assay: as above; details: source organism: Entamoeba histolytica HM-1:IMSS
HLA-A*03:01 [2] = assay: as above
HLA-B*57:01 [3] = assay: as above
HLA-B*18:01 [4] = assay: as above
HLA-A*02:11 = assay: as above
HLA-B*46:01 [5] = assay: as above
HLA-A*26:01 [6] = assay: as above
HLA-A*11:01 = assay: IEDB peptide-MHC binding, purified MHC/direct/fluorescence; filed as Kd, often an IC50 or EC50 that approximates it; ≥ and ≤ were set here for values at or beyond the usual limits of such assays
HLA-B*08:01 = assay: as above
HLA-A*02:01 [7] = assay: as above
HLA-B*40:01 = assay: as above
HLA-A*03:01 [8] = assay: as above
HLA-B*07:02 = assay: as above
HLA-B*27:05 = assay: as above
HLA-B*58:01 [9] = assay: as above
HLA-B*08:02 = assay: as above
HLA-B*46:01 [10] = assay: as above
HLA-B*15:01 = assay: as above
HLA-B*15:09 = assay: as above
HLA-A*01:01 [11] = assay: as above
HLA-A*26:01 [12] = assay: as above
HLA-B*39:01 [13] = assay: IEDB peptide-MHC binding, purified MHC/competitive/fluorescence; filed as Kd, often an IC50 or EC50 that approximates it; ≥ and ≤ were set here for values at or beyond the usual limits of such assays
HLA-A*69:01 [14] = assay: IEDB peptide-MHC binding, purified MHC/direct/fluorescence; filed as Kd, often an IC50 or EC50 that approximates it; ≥ and ≤ were set here for values at or beyond the usual limits of such assays
HLA-A*31:01 = assay: as above
HLA-B*57:01 [15] = assay: as above
HLA-B*18:01 [16] = assay: as above
HLA-B*44:02 = assay: as above
HLA-A*69:01 [17] = assay: IEDB peptide-MHC binding, purified MHC/competitive/fluorescence; filed as Kd, often an IC50 or EC50 that approximates it; ≥ and ≤ were set here for values at or beyond the usual limits of such assays; details: source organism: Human immunodeficiency virus 1
HLA-A*02:01 [18] = assay: as above
HLA-A*02:03 = assay: as above
HLA-C*03:03 = assay: IEDB peptide-MHC binding, purified MHC/direct/fluorescence; filed as Kd, often an IC50 or EC50 that approximates it; ≥ and ≤ were set here for values at or beyond the usual limits of such assays
HLA-C*05:01 = assay: as above
HLA-B*58:01 [19] = assay: IEDB peptide-MHC binding, purified MHC/competitive/fluorescence; filed as Kd, often an IC50 or EC50 that approximates it; ≥ and ≤ were set here for values at or beyond the usual limits of such assays
HLA-A*01:01 [20] = assay: as above
HLA-B*39:01 [21] = assay: IEDB peptide-MHC binding, purified MHC/direct/fluorescence; filed as Kd, often an IC50 or EC50 that approximates it; ≥ and ≤ were set here for values at or beyond the usual limits of such assays
HLA-B*15:17 = assay: as above; details: source organism: Camelpox virus M-96
HLA-A*68:02 = assay: as above; details: source organism: Camelpox virus M-96
HLA-B*48:01 = assay: as above
HLA-A*02:12 = assay: IEDB peptide-MHC binding, purified MHC/competitive/fluorescence; filed as Kd, often an IC50 or EC50 that approximates it; ≥ and ≤ were set here for values at or beyond the usual limits of such assays; details: source organism: Vibrio parahaemolyticus AQ3810
HLA-A*29:02 [22] = assay: IEDB peptide-MHC binding, purified MHC/direct/fluorescence; filed as Kd, often an IC50 or EC50 that approximates it; ≥ and ≤ were set here for values at or beyond the usual limits of such assays; details: source organism: West Nile virus
[23] = source organism: Entamoeba histolytica HM-1:IMSS
[24] = source organism: Burkholderia mallei
[25] = source organism: Burkholderia mallei ATCC 23344
[26] = source organism: West Nile virus
[27] = source organism: West Nile virus strain PTRoxo
[28] = source organism: Human immunodeficiency virus 1
[29] = source organism: Salmonella enterica subsp. enterica serovar Typhi
[30] = source organism: Camelpox virus M-96
[31] = source organism: Vibrio parahaemolyticus AQ3810
[32] = source organism: Yersinia pestis Nepal516
[33] = source organism: Bacillus thuringiensis str. Al Hakam

CLSPVVAGL gave a Kd (HLA-B*27:03; [23]) of at least 20 µM, a Kd (HLA-A*02:19; [23]) of 0.0008 µM and a Kd (HLA-A*29:02 [1]) of 0.219 µM. For the same sequence, the Kd (HLA-A*03:01 [2]; [23]) was at least 20 µM, the Kd (HLA-B*57:01 [3]; [23]) was at least 20 µM and the Kd (HLA-B*18:01 [4]; [23]) was at least 20 µM. The Kd (HLA-A*02:11; [23]) was at most 0.0001 µM, the Kd (HLA-B*46:01 [5]; [23]) was at least 20 µM and the Kd (HLA-A*26:01 [6]; [23]) was at least 20 µM.
With EARGKEKLL the Kd (HLA-A*11:01; [24]) was at least 20 µM, the Kd (HLA-B*08:01; [25]) was 5.88 µM and the Kd (HLA-A*02:01 [7]; [24]) was at least 20 µM. The Kd (HLA-B*40:01; [24]) was at least 20 µM, the Kd (HLA-A*03:01 [8]; [24]) was at least 20 µM and the Kd (HLA-B*07:02; [24]) was at least 20 µM. The Kd (HLA-B*27:05; [24]) was at least 20 µM, the Kd (HLA-B*58:01 [9]; [24]) was at least 20 µM and the Kd (HLA-B*08:02; [25]) was at least 20 µM. The Kd (HLA-B*46:01 [10]; [24]) was at least 20 µM, the Kd (HLA-B*15:01; [24]) was at least 20 µM and the Kd (HLA-B*15:09; [25]) was at least 20 µM. It also gave a Kd (HLA-A*01:01 [11]; [24]) of at least 20 µM and a Kd (HLA-A*26:01 [12]; [25]) of at least 20 µM.
GHGTVVLEL showed a Kd (HLA-B*39:01 [13]; source organism: Murray Valley encephalitis virus) of 0.0067 µM, a Kd (HLA-A*69:01 [14]; [26]) of at least 20 µM and a Kd (HLA-A*02:01 [7]; [26]) of at least 20 µM. The Kd (HLA-B*40:01; [26]) was at least 20 µM, the Kd (HLA-A*03:01 [8]; [26]) was at least 20 µM and the Kd (HLA-A*31:01; [26]) was at least 20 µM. It also gave a Kd (HLA-B*07:02; [26]) of at least 20 µM, a Kd (HLA-B*57:01 [15]; [26]) of at least 20 µM and a Kd (HLA-B*18:01 [16]; [26]) of at least 20 µM. For the same sequence, the Kd (HLA-B*27:05; [26]) was at least 20 µM, the Kd (HLA-B*58:01 [9]; [26]) was at least 20 µM and the Kd (HLA-B*44:02; [26]) was at least 20 µM. The Kd (HLA-B*46:01 [10]; [26]) was at least 20 µM, the Kd (HLA-B*15:01; [26]) was at least 20 µM and the Kd (HLA-B*15:09; [27]) was 4.55 µM. It also gave a Kd (HLA-A*01:01 [11]; [26]) of at least 20 µM.
With GLADQLIHI the Kd (HLA-A*69:01 [17]) was at least 20 µM, the Kd (HLA-A*02:01 [18]; [28]) was 0.0295 µM and the Kd (HLA-A*02:19; [28]) was 0.0095 µM. It also gave a Kd (HLA-A*02:11; [28]) of 0.0002 µM and a Kd (HLA-A*02:03; [28]) of 0.0012 µM.
ILDTGTIQL gave a Kd (HLA-C*03:03; source organism: Homo sapiens) of 1.27 µM and a Kd (HLA-C*05:01; source organism: Homo sapiens) of 0.019 µM.
ITSKEVFTY gave a Kd (HLA-A*03:01 [2]; [29]) of 2.28 µM, a Kd (HLA-B*58:01 [19]; [29]) of 0.0256 µM and a Kd (HLA-A*01:01 [20]; [29]) of 0.0338 µM.
KELENEYYF showed a Kd (HLA-A*02:01 [18]; source organism: Vaccinia virus WR) of at least 20 µM, a Kd (HLA-A*69:01 [14]; [30]) of at least 20 µM and a Kd (HLA-B*39:01 [21]; source organism: Variola virus) of at least 20 µM. It also gave a Kd (HLA-A*11:01; [30]) of at least 20 µM, a Kd (HLA-B*08:01; source organism: Variola virus) of at least 20 µM and a Kd (HLA-B*40:01; [30]) of 0.0183 µM. It also gave a Kd (HLA-A*31:01; [30]) of at least 20 µM, a Kd (HLA-B*07:02; [30]) of at least 20 µM and a Kd (HLA-B*15:17) of at least 20 µM. The Kd (HLA-B*57:01 [15]; [30]) was at least 20 µM, the Kd (HLA-A*68:02) was at least 20 µM and the Kd (HLA-B*18:01 [16]; [30]) was 0.0198 µM. For the same sequence, the Kd (HLA-B*27:05; [30]) was at least 20 µM, the Kd (HLA-B*58:01 [9]; [30]) was at least 20 µM and the Kd (HLA-B*08:02; source organism: Variola virus) was at least 20 µM. It also gave a Kd (HLA-B*44:02; [30]) of at least 20 µM, a Kd (HLA-B*15:09; source organism: Variola virus) of at least 20 µM and a Kd (HLA-B*48:01; [30]) of at least 20 µM. The Kd (HLA-A*01:01 [11]; [30]) was at least 20 µM and the Kd (HLA-A*26:01 [12]; source organism: Variola virus) was at least 20 µM.
With SSRGYSAIW the Kd (HLA-B*39:01 [13]; [31]) was at least 20 µM, the Kd (HLA-B*27:03; [31]) was at least 20 µM and the Kd (HLA-A*02:12) was at least 20 µM. The Kd (HLA-A*02:19; [31]) was at least 20 µM, the Kd (HLA-A*03:01 [2]; [31]) was at least 20 µM and the Kd (HLA-B*57:01 [3]; [31]) was 0.042 µM. It also gave a Kd (HLA-B*18:01 [4]; [31]) of at least 20 µM, a Kd (HLA-B*46:01 [5]; [31]) of at least 20 µM and a Kd (HLA-A*02:03; [31]) of at least 20 µM. For the same sequence, the Kd (HLA-A*26:01 [6]; [31]) was at least 20 µM.
For STIVWSSRY, the Kd (HLA-A*03:01 [2]; [32]) was 3.5 µM, the Kd (HLA-B*58:01 [19]; [32]) was 0.17 µM and the Kd (HLA-A*01:01 [20]; [32]) was 1.4 µM.
Sequence TEGEGRVIL has a Kd (HLA-A*69:01 [14]; [26]) of at least 20 µM, a Kd (HLA-B*39:01 [21]; [26]) of at least 20 µM and a Kd (HLA-A*11:01; [26]) of at least 20 µM. For the same sequence, the Kd (HLA-A*02:01 [7]; [26]) was at least 20 µM, the Kd (HLA-B*40:01; [26]) was 0.0459 µM and the Kd (HLA-A*29:02 [22]) was at least 20 µM. It also gave a Kd (HLA-A*03:01 [8]; [26]) of at least 20 µM, a Kd (HLA-A*31:01; [26]) of at least 20 µM and a Kd (HLA-B*07:02; [26]) of at least 20 µM. For the same sequence, the Kd (HLA-B*57:01 [15]; [26]) was at least 20 µM, the Kd (HLA-B*18:01 [16]; [26]) was 1.01 µM and the Kd (HLA-B*27:05; [26]) was at least 20 µM. The Kd (HLA-B*58:01 [9]; [26]) was at least 20 µM, the Kd (HLA-B*44:02; [26]) was at least 20 µM and the Kd (HLA-B*46:01 [10]; [26]) was at least 20 µM. It also gave a Kd (HLA-B*15:01; [26]) of at least 20 µM, a Kd (HLA-B*15:09; [27]) of at least 20 µM and a Kd (HLA-B*48:01; [26]) of at least 20 µM. For the same sequence, the Kd (HLA-A*01:01 [11]; [26]) was at least 20 µM.
YLVDCGAEL gave a Kd (HLA-C*03:03; source organism: Mycobacterium tuberculosis str. Haarlem) of at most 0.001 µM.
YSAWGGYNL gave a Kd (HLA-B*39:01 [13]; [33]) of 0.404 µM and a Kd (HLA-C*05:01; [33]) of 4.18 µM.
